Columns and labels:
Assay in all cases: BLI Octet; IgG, avid
[1] = molecular target: T1, BMP9 (UniProt Q9UK05 320-429)
T1 sequence (looked up): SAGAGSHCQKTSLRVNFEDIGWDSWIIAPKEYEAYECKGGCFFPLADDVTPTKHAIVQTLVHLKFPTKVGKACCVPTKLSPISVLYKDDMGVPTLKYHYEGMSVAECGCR

[2] = molecular target: T2, BMP10 (UniProt O95393 317-424)
T2 sequence (looked up): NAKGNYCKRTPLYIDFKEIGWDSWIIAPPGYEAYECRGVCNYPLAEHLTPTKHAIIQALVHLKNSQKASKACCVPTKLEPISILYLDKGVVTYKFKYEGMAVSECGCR

[3] = molecular target: T3, GDF15 Fc (UniProt Q99988 197-308, limits assumed)
T3 construct: species not given; not shown: Fc part of the fusion
T3 sequence (looked up): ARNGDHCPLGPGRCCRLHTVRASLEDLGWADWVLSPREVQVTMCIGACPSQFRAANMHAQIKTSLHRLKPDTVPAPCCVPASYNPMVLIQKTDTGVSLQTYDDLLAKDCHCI

[4] = molecular target: T4, human GDNF (human, UniProt P39905 78-211, limits assumed)
T4 sequence (looked up): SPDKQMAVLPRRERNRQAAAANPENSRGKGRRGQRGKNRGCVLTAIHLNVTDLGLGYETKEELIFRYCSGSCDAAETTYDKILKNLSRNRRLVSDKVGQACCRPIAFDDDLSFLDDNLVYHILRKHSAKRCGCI

[5] = molecular target: human GDF8 (human, UniProt O14793 267-375)
[6] = molecular target: T5, human GDF10 (human, UniProt P55107 369-478)
T5 sequence (looked up): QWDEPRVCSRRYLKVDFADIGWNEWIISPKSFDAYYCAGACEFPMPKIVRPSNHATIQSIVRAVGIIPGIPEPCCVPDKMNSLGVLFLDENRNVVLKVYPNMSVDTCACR

[7] = molecular target: human GDF11 (human, UniProt O95390 299-407)
human GDF11, sequence (O95390 299-407 limits assumed): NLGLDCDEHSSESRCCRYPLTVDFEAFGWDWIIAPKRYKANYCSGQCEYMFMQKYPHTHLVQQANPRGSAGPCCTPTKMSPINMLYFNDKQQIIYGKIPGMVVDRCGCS

[8] = molecular target: T6, Activin B (UniProt P09529 293-407)
T6 sequence (looked up): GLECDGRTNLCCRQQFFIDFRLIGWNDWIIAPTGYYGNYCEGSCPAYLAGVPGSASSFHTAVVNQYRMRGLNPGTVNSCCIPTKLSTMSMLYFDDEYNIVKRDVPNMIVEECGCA

Measured: binding result

B1: Antibody M (Clone M), IgG (antibody, V domains shown)
VH: QLQLQESGPGLVKPSETLSLTCTVSGGSISSSDYYWGWIRQPPGKGLEWIGSIYYPANTYYNPSLKSRVTISVDTSKNQFSLKLSSVTAADTAVYYCARGYWNYGMDVWGQGTTVTVSS
VL: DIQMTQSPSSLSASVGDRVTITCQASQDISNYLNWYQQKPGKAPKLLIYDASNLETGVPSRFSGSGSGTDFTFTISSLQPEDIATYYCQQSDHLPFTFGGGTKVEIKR
notes: IgG
no binding (tested: 100 nM): [1] | [2] | [3] | [4] | [5] | [6] | [7]

B2: Antibody N (Clone N), IgG (antibody, V domains shown)
VH: QLQLQESGPGLVKPSETLSLTCTVSGGSISSSDYYWGWIRQPPGKGLEWIGSIYYPASTYYNPSLKSRVTISVDTSKNQFSLKLSSVTAADTAVYYCARGYWNYGMDVWGQGTTVTVSS
VL: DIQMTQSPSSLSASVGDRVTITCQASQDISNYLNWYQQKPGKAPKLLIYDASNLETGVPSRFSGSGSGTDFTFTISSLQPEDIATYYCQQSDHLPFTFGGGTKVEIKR
notes: IgG
no binding (tested: 100 nM): [1] | [2] | [3] | [4] | [5] | [6] | [7]

B3: Antibody O (Clone O), IgG (antibody, V domains shown)
VH: QVQLVQSGAEVKKPGSSVKVSCKASGGTFSNYDINWVRQAPGQGLEWMGGIIPVFGTAAYAQKFQGRVTITADESTSTAYMELSSLRSEDTAVYYCAREARDGYRYAFQHWGQGTLVTVSS
VL: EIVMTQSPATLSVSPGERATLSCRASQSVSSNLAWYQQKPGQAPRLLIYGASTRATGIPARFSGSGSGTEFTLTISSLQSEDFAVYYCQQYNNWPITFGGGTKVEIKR
notes: IgG
no binding (tested: 100 nM): [8] | [1] | [2] | [3] | [4] | [5] | [6] | [7]

B4: Antibody P (Clone P), IgG (antibody, V domains shown)
VH: QVQLVQSGAEVKKPGSSVKVSCKASGGTFDDYAISWVRQAPGQGLEWMGGIIPRFGIANYAQKFQGRVTITADESTSTAYMELSSLRSEDTAVYYCARPPSSGSDWGQGTLVTVSS
VL: DIQMTQSPSSVSASVGDRVTITCRASQGIDSWLAWYQQKPGKAPKLLIYAASSLQSGVPSRFSGSGSGTDFTLTISSLQPEDFATYYCQQVHSFPITFGGGTKVEIKR
notes: IgG
no binding (tested: 100 nM): [1] | [2] | [3] | [4] | [5] | [6] | [7]

B5: Antibody L (Clone L), IgG (antibody, V domains shown)
VH: QVQLQESGPGLVKPSETLSLTCAVSGYSISSGYYWGWIRQPPGKGLEWIGSIYHSGSTYYNPSLKSRVTISVDTSKNQFSLKLSSVTAADTAVYYCAREAGSGYWYLSVYGMDVWGQGTTVTVSS
VL: EIVLTQSPATLSVSPGERATLSCRASQSVSSNLAWYQQKPGQAPRLLIYGASTRATGIPARFSGSGSGTEFTLTISSLQSEDFAVYYCQQSDDWPWTFGGGTKVEIKR
notes: IgG
no binding (tested: 100 nM): [1] | [2] | [3] | [4] | [5] | [6] | [7]

B6: Antibody Q (Clone Q), IgG (antibody, V domains shown)
VH: QVQLVQSGAEVKKPGSSVKVSCKASGGSFSPYTWSWVRQAPGQGLEWMGGIIPISGTANTAQKFQGRVTITADESTSTAYMELSSLRSEDTAVYYCARGGPLSGWRASYYYWGQGTLVTVSS
VL: not shown
notes: IgG
no binding (tested: 100 nM): [8] | [1] | [2] | [3] | [4] | [5] | [6] | [7]

B7: Antibody R (Clone R), IgG (antibody, V domains shown)
VH: QVQLVQSGAEVKKPGSSVKVSCKASGGSFSPYTISWVRQAPGQGLEWMGGIILTSGTANYAQKFQGRVTITADESTSTAYMELSSLRSEDTAVYYCARGGPLSGWRASYYYWGQGTLVTVSS
VL: not shown
notes: IgG
no binding (tested: 100 nM): [8] | [1] | [2] | [3] | [4] | [5] | [6] | [7]

B8: Antibody A (Clone A), IgG (antibody, V domains shown)
VH: QVQLVQSGAEVKKPGASVKVSCKASGYTFTGYYMHWVRQAPGQGLEWMGSINPSSGGTNYAQKFQGRVTMTTDTSTSTAYMELRSLRSDDTAVYYCARARDIAAAGLGAFDYWGQGTLVTVSS
VL: EIVLTQSPGTLSLSPGERATLSCRASQSVRSSYLAWYQQKPGQAPRLLIYGASSRATGIPDRFSGSGSGTDFTLTISRLEPEDFAVYYCQQYVSYPRTFGGGTKVEIKR
notes: IgG
no binding (tested: 100 nM): [8] | [1] | [2] | [3] | [4] | [5] | [6] | [7]

B9: Antibody H (Clone H), IgG (antibody, V domains shown)
VH: QVQLVQSGAEVKKPGASVKVSCKASGYTFTGYHIHWVRQAPGQGLEWMGHISAYSGTTNYAQKLQGRVTMTTDTSTSTAYMELRSLRSDDTAVYYCARARDIAAAGLGAFDYWGQGTLVTVSS
VL: EIVLTQSPGTLSLSPGERATLSCRASQSVRSSYLAWYQQKPGQAPRLLIYGASSRATGIPDRFSGSGSGTDFTLTISRLEPEDFAVYYCQQYSNYPRTFGGGTKVEIKR
notes: IgG
no binding (tested: 100 nM): [1] | [2] | [3] | [4] | [5] | [6] | [7]

B10: Antibody G (Clone G), IgG (antibody, V domains shown)
VH: QVQLVQSGAEVKKPGASVKVSCKASGYTFTSYYIHWVRQAPGQGLEWMGAIYAYSGDTNYAQKLQGRVTMTTDTSTSTAYMELRSLRSDDTAVYYCARARDIAAAGLGAFDYWGQGTLVTVSS
VL: EIVLTQSPGTLSLSPGERATLSCRASQSVRSSYLAWYQQKPGQAPRLLIYGASSRATGIPDRFSGSGSGTDFTLTISRLEPEDFAVYYCQQYSNYPRTFGGGTKVEIKR
notes: IgG
no binding (tested: 100 nM): [8] | [1] | [2] | [3] | [4] | [5] | [6] | [7]

Source: patent US20250109190A1 (BYOMASS, published 2025)
